Measured values published in article PMC4976216.

Biological target: microtubules made from mutant yeast tubulin containing no β-CTT (Saccharomyces cerevisiae) (UniProt P09733)
Assay: co-sedimentation; microtubule binding spin-down assay with yeast tubulin polymerized at 30 °C, experiment carried out at 30 °C; anti-tubulin and anti-CGN western blot

reduction in binding against wild-type yeast tubulin: 75%
B1: GST-CGN(1-406) (domain or fragment)
chain: MEQAPNMAEPRGPVDHGVQIRFITEPVSGAEMGTLRRGGRRPAKDARASTYGVAVRVQGIAGQPFVVLNSGEKGGDSFGVQIKGANDQGASGALSSDLELPENPYSQVKGFPAPSQSSTSDEEPGAYWNGKLLRSHSQASLAGPGPVDPSNRSNSMLELAPKVASPGSTIDTAPLSSVDSLINKFDSQLGGQARGRTGRRTRMLPPEQRKRSKSLDSRLPRDTFEERERQSTNHWTSSTKYDNHVGTSKQPAQSQNLSPLSGFSRSRQTQDWVLQSFEEPRRSAQDPTMLQFKSTPDLLRDQQEAAPPGSVDHMKATIYGILREGSSESETSVRRKVSLVLEKMQPLVMVSSGSTKAVAGQGELTRKVEELQRKLDEEVKKRQKLEPSQVGLERQLEEKTEECSRL
